Assay results: patent publication US20230105667A1, “MESENCHYMAL STROMAL CELLS AND EXTRACELLULAR VESICLES FOR TREATING VIRAL INFECTIONS, INFLAMMATION, AND TISSUE FIBROSIS” (EXOSTEM BIOTEC LTD., priority 2020, published 2023)

Target: human ACE2 on cells (human lung epithelial cells expressing ACE2 (human) (UniProt Q9BYF1))
Test: cell-based or functional assay

Chain of UniProt Q9BYF1 (Q9BYF1 18-805 limits assumed): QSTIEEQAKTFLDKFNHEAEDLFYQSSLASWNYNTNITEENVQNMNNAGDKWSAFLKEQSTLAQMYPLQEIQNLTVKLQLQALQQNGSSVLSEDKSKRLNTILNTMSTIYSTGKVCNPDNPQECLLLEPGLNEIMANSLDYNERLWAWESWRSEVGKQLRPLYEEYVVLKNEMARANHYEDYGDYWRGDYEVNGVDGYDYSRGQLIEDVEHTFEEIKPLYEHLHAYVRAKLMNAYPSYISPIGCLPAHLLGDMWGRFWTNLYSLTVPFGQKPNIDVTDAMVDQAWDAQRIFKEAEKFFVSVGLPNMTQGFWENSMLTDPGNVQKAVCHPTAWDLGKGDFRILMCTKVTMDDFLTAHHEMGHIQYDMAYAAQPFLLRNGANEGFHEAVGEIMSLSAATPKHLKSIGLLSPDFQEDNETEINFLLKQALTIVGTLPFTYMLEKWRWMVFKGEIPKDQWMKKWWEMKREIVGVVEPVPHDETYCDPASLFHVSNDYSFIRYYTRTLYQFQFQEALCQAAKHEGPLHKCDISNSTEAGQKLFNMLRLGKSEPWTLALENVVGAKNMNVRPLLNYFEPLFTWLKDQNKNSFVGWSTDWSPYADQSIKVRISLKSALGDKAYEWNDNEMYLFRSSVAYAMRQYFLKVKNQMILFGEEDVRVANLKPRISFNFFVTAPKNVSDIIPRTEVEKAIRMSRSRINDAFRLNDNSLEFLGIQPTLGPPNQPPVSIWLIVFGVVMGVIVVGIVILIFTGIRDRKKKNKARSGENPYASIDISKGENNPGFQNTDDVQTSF

Substance “SARS-CoV-2 receptor-binding-domain (RBD) displayed on extracellular vesicles from MSCs (ligand)” has a TNFα levels in HBE cells treated with RBD recombinant protein of 50%.
